Among the data in patent US20240301086A1 (APTEVO RESEARCH AND DEVELOPMENT, published 2024) are Kd values, retold here.

For test [1], the target named is T1, mIgG Fc-cyno PSMA ECD (cynomolgus monkey).
T1 construct: Called PSMA dimer in the SPR method; also called mFc-Cyno PSMA ECD; murine Fc-tagged cyno PSMA ECD
T1 chain: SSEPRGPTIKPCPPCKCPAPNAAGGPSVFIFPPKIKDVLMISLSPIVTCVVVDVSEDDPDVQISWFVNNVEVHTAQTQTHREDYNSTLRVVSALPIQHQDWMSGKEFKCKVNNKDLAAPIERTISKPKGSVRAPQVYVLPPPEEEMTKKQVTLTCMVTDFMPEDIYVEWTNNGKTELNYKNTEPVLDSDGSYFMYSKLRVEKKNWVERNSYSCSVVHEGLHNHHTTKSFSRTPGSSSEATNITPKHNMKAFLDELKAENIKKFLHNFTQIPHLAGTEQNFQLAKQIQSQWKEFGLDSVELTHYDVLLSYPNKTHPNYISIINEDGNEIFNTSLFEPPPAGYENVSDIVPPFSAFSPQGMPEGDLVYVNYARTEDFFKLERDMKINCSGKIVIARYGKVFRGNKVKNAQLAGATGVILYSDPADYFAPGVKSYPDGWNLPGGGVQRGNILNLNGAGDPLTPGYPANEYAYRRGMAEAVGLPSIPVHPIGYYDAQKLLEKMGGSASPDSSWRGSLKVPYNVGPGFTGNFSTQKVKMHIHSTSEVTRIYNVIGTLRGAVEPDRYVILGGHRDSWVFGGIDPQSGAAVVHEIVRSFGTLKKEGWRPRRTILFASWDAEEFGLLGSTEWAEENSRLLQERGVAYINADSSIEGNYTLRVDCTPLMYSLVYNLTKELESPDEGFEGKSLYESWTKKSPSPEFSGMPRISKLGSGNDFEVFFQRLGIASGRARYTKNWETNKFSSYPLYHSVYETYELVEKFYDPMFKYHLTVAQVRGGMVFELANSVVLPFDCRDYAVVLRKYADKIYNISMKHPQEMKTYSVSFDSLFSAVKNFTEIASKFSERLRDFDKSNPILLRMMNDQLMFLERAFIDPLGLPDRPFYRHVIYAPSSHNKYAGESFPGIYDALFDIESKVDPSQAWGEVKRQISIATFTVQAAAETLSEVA
Description: SPR (Biacore T200), bispecific amine-coupled, mFc-PSMA dimer 1-81 nM as analyte, 1:1 fit. How it is done: SPR studies were performed on a subset of bispecific constructs binding to Human and cynomolgus primate PSMA ectodomain (ECD) fused to the c-terminus of a murine IgG1 Fc region. These experiments were conducted at 25° C. in dPBS (Gibco, 14040-133) with 0.2% BSA buffer on a Biacore T200 system. Bispecific constructs were immobilized at a density of ˜2,000-4,000 response units (RU) onto individual flow cells of a CM5 research-grade sensor chip (GE) by standard amine coupling chemistry, leaving one flow cell surface unmodified as the reference. Using a multi-cycle kinetics mode, a buffer blank and […] different concentrations of the PSMA dimer ranging from 1 nM to 81 nM in dPBS with 0.2% BSA were sequentially injected through each flow cell at 30 μL/min for 300 seconds followed by a 600 second dissociation phase. Regeneration was achieved by injection of 10 mM glycine pH 2.0 at a flow rate of 30 μL/min for 40 seconds followed by dPBS with 0.2% BSA buffer stabilization for 1 min.
Sensorgrams obtained from kinetic SPR measurements were analyzed by the double subtraction method. The signal from the reference flow cell was subtracted from the analyte binding response obtained from flow cells with captured ligands. The buffer blank response was then subtracted from analyte binding responses and the final double-referenced data were analyzed with Biacore T200 Evaluation software (2.0, GE), globally fitting data to derive kinetic parameters. All sensorgrams were fitted using a simple one-to-one binding model.

The target of test [2] is T2, Human PSMA ECD-AFH (TSC033), recombinant dimeric PSMA ECD (human, UniProt Q04609 44-750).
T2 construct: SEC-purified dimer; also called HuPSMA-AFH; Avi-His-Human PSMA ECD
T2 sequence (Q04609 other isoform, or with tags, fused parts or gaps): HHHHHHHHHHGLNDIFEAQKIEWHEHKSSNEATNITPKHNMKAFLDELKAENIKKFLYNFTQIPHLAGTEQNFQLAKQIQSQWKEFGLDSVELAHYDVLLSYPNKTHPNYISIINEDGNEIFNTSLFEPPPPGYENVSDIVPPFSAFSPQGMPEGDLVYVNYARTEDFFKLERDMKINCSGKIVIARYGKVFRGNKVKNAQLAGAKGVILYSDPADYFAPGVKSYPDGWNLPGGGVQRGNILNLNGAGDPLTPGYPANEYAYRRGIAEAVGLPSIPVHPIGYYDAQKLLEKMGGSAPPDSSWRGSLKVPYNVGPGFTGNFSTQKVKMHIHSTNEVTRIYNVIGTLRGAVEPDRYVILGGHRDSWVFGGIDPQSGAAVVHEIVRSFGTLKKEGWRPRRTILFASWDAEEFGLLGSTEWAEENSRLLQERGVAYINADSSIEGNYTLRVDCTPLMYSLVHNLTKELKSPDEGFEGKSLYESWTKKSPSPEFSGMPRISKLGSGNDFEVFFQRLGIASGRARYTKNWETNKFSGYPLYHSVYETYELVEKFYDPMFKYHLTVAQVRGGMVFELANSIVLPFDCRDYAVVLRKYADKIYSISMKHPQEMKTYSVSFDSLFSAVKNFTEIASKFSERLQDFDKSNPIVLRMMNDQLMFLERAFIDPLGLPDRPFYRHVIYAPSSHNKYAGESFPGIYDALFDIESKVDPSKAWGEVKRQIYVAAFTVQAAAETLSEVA
Description: SPR (Biacore T200), human PSMA dimer ECD 10X His (TSC033), 1:1 fit.

B1: PSMA01107 Anti-PSMA scFv x Fc x linker x Anti CD3 scFv; Anti PSMA scFv x Fc (bispecific antibody)
chain 1: QVQLVQSGAEVKKPGASVKVSCKASGYTFTDYYMHWVRQAPGQGLEWMGYFNPYNDYTRYAQKFQGRVTMTRDTSTSTVYMELSSLRSEDTAVYYCARSDGYYDAMDYWGQGTTVTVSSGGGGSGGGGSGGGGSGGGGSDIQMTQSPSSLSASVGDRVTITCRASKSISKYLAWYQQKPGKAPKLLIHSGSSLESGVPSRFSGSGSGTEFTLTISSLQPDDFATYYCQQHIEYPWTFGQGTKVEIKEPKSSDKTHTCPPCPAPPAAAPSVFLFPPKPKDTLMISRTPEVTCVVVDVSHEDPEVKFNWYVDGVEVHNAKTKPREEQYNSTYRVVSVLTVLHQDWLNGKEYKCAVSNKALPAPIEKTISKAKGQPREPQVYTLPPSRDELTKNQVSLWCLVKGFYPSDIAVEWESNGQPENNYKTTPPVLDSDGSFFLYSKLTVDKSRWQQGNVFSCSVMHEALHNHYTQKSLSLSPGGGGSPSQVQLVQSGAEVKKPGASVKVSCKASGYTFTRSTMHWVRQAPGQGLEWIGYINPSSAYTNYAQKFQGRVTLTADKSTSTAYMELSSLRSEDTAVYYCASPQVHYDYNGFPYWGQGTLVTVSSGGGGSGGGGSGGGGSGGGGSDIQMTQSPSSLSASVGDRVTITCRASSSVSYMNWYQQKPGKAPKRWIYDSSKLASGVPSRFSGSGSGTDFTLTISSLQPEDFATYYCQQWSRNPPTFGQGTKVEIKRS
chain 2: QVQLVQSGAEVKKPGASVKVSCKASGYTFTDYYMHWVRQAPGQGLEWMGYFNPYNDYTRYAQKFQGRVTMTRDTSTSTVYMELSSLRSEDTAVYYCARSDGYYDAMDYWGQGTTVTVSSGGGGSGGGGSGGGGSGGGGSDIQMTQSPSSLSASVGDRVTITCRASKSISKYLAWYQQKPGKAPKLLIHSGSSLESGVPSRFSGSGSGTEFTLTISSLQPDDFATYYCQQHIEYPWTFGQGTKVEIKEPKSSDKTHTCPPCPAPPAAAPSVFLFPPKPKDTLMISRTPEVTCVVVDVSHEDPEVKFNWYVDGVEVHNAKTKPREEQYNSTYRVVSVLTVLHQDWLNGKEYKCAVSNKALPAPIEKTISKAKGQPREPQVYTLPPSRDELTKNQVSLSCAVKGFYPSDIAVEWESNGQPENNYKTTPPVLDSDGSFFLVSKLTVDKSRWQQGNVFSCSVMHEALHNHYTQKSLSLSPG
notes: Heterodimer, bivalent for PSMA and monovalent for CD3 (VH-VL scFv at the C-terminus); also called PSMA1107
Take B1: the values for the Kd in test [1] and in test [2] were 4.4 nM and 2.6 nM, respectively.
